Data as given in IntAct's records for PubMed 23022437.

B1: Sodium channel protein type 7 subunit alpha (Mus musculus), B1AYL1 (parent)
chain: MLTSPEPKGLVPFTTESLELIENHIAKKCNEDPEEEEGLKPSRNLEAGKRLPIPYGTLPRGTVSEPLEDVDPYYYVKRNTFMVLNRSRVIFRFNAVSIFCTLSPLNSLRRAAIKALVHPLFRLLILISVLTDSILMCMSNLPEWILAIENTLLGIYAFEILVKVIARGIWAGSFSFLGDLWNWLDFSVTLFELITRFSPLSSFLMLKTIRTFRILKIIPLNHGLQSIVMTLAQCLKKLFGAIALALFFLAVFSLLGMGLFMGNLKHKCLRWPEENENETLHNRTGSLNYSPERINFYYMEGAKYALLCGNRTDAGQCPEGYVCVKEGTNPDNGFTSFDNFGWSLLAMFRLMTQDYPELLYHQILYASGKVYMIFFVMISFWFAFYLTSLFLGILTMTYEKEKQRACEESGGLDPKCQQTVKELDEENDAAEMETTQIEMKKRSPTSINTTLDILEDTTLGHREEPETSRKKCPICWHKFIKTCFIWKCSPCWVKLNEFADRVITHPLADLFLVICIVLNICFLALEHFPMSEELRSLLHVGNLVFIGIYTIEMILKIIAMHPYGYFQISWNIFDSILVVLELTEILLADVEGLAVLITVPLIFIKLGKYGPPFKSLMRILGSSLMALKDLVLLLCIFVYFSAVFGMKLFGRSYKDCVCHIKEDCQPQRWHMSDFLHAYMTVFRILCGEWIETLWECMEVAGQAWCIPFYMMVILIGNLLILYLFVTLVSSFSYYDATSEVNKEAKNLQLAMARIKSGINSMLLKLMCTERSVPTEATDQICDPSVKENISGHTLSELSNTQTFLRYKDQSSSTEKTPVTESESQSLIASPSASETVPIASGESDIENLDNKETRSKSGNGGSKEKMKQSSSSECSTVDIAISEEEEMVYEHEKSKLHKNGYERKSSTGQISRESRNGKIWKNIRKTCCKIVENSWFECFIGLVTLLCTGTLALEDIYIDQRKTTKILLEYADMIFAYIFILEMLLKWVAYGFKAFFSNNWYKLDFMVVIVFCLSLIGKTREDLNPLTSIKFLRALRVLSQFERMKVVLRALIKTTLPTVSVFLVCLMIWLLFSVIGVQLFAGKFYECIDPTKGERFPVFEVMNKSQCEKLLFNESMPWENAKLNFDNVGNGFLSLLQVATFNGWISIMNSAIDSVGVNMQPSFEYNLYMYSYFIIFVIFGLFLPLCMLIGVIIRNFNKQKIKQGGSNIFITVKQKKQYRALKKLLYADVQKPTPRPRNKFQGFLFDLVTHRVFNVIIILLICFQATTIMIQKDEQSPQMETAIFWMNSIFVMLFTLECILKLTAFRCHYFTSAWNVHDFMVVIFSITGLLLPLTIGQYFVPPSLVQLILLSRVIHILRPGKGPKVFHDLMLPLILALPALLNISLLIFLVMFIYAIFGMYNFAYVKKEAGINDVSNFETFGSSMLCLFQVTTFSGWDGMLDAIFNSQWSDCDPDKINPGTQVKGDCGSPSVGISYFVSYILISWLIIVNMYIVLIMEFLSIPSQKKSRTLSEDDFRRFFRVWNRFDPDRTQYIDSSKLSDFAAALDPPLFMAKPNKGQLVAMDLPMAAGDRIHCLDILLAFTKRVMGKDERVEKILSEIESGFMLANPFKITYEPITTTLKRKQEAVSATIIQRAYKSYRLRQNDKNVSDTPAIDDRRDDLTSKGAHSGKIEEKASIQTQI

Variants of: B1
Details: with dlg1_mouse Dlg1, Q811D0
Chain of dlg1_mouse Dlg1, Q811D0 (Q811D0 whole entry): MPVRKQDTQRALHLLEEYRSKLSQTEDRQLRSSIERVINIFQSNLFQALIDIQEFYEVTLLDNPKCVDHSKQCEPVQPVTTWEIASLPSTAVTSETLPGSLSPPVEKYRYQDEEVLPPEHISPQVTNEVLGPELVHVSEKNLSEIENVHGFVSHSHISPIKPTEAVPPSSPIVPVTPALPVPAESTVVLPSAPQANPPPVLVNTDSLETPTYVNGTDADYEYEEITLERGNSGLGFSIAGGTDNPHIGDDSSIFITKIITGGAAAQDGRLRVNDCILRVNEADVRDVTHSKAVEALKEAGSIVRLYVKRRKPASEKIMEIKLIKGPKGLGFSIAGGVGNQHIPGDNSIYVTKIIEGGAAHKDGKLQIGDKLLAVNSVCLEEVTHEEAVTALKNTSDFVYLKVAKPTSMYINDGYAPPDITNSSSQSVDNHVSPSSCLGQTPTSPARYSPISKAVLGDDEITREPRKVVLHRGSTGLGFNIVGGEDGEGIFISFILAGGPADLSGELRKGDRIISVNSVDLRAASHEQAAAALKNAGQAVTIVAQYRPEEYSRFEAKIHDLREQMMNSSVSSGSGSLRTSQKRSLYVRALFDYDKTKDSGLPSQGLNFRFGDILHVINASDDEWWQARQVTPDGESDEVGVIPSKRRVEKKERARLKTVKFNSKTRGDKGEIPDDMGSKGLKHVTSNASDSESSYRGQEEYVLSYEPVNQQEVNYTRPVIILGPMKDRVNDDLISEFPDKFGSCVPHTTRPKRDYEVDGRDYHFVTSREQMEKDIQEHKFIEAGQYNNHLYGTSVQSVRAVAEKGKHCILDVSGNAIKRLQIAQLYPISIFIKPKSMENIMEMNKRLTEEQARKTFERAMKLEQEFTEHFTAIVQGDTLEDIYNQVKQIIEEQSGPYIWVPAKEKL

| effect of a mutation on the interaction | Variant |
| --- | --- |
| disrupting interaction | T1679A |

Variants of: B1
Details: with dlg1_rat Dlg1, Q62696
Chain of dlg1_rat Dlg1, Q62696 (Q62696 whole entry): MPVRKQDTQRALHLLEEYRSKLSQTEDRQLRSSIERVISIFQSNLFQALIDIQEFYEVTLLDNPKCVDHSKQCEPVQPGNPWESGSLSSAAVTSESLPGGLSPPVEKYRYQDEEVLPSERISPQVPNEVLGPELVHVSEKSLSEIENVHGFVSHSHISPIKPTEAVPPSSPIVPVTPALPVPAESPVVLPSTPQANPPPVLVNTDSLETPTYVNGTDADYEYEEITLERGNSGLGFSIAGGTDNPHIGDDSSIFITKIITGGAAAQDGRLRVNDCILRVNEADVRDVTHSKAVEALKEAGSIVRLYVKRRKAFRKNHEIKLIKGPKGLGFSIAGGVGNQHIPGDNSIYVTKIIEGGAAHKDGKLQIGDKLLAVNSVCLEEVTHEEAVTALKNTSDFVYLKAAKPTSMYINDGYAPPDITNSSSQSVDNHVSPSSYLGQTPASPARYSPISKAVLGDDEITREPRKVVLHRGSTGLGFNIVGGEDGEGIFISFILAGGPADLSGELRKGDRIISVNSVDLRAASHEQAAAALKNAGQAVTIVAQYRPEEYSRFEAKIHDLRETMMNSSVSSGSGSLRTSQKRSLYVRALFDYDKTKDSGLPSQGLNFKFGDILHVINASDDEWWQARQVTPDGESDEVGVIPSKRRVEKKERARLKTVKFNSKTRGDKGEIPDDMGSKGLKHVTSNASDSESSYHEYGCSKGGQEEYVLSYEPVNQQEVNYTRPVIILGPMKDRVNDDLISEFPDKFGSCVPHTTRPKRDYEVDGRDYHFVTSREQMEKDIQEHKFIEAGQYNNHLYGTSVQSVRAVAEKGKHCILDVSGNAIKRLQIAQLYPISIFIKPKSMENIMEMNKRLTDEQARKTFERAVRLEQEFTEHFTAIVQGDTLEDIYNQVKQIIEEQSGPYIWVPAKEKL

| effect of a mutation on the interaction | Variant |
| --- | --- |
| disrupting interaction | T1679A |
